Several values for one entry are separate records, joined by “and”; a condition that tells them apart may be missing. Identical values can stand only once. Marks after values point to notes of the source that are not given here. Peptide text beside a SMILES is read from it.
Columns and labels:
[1] = system: DPP-IV; assay: Kinetic constant measurements with chromogenic substrate H-Gly-Pro-pNA; type: biochemical, human; details: for Km / kcat: substrate H-Gly-Pro-pNA
Description: To measure the kinetic parameters, the chromogenic substrate H-Gly-Pro-pNA was utilized to initiate the reaction, which was monitored at OD 405 nm as a function of time (21). […] The initial rate was measured with less than 10% substrate depletion for the first 10 to 300 seconds. The steady-state parameters, kcat and Km, were determined from initial velocity measurements at 0.5 to 5 Km of the substrate concentrations. Lineweaver-Burk plots were analyzed using non-linear regression of the Michaelis-Menten equation. Correlation coefficients better than 0.99 were obtained throughout.

[2] = Analytical ultracentrifugation (AUC): sedimentation velocity and equilibrium; type: physicochemical; details: for quaternary structure (monomer/dimer) by AUC: PBS buffer where stated; for Stokes' radius (Rs): sedimentation velocity experiments
Description: Buffer was changed using an Amicon device and DPP-IV proteins were allowed to equilibrate for at least four hours or longer as indicated in the text at 25° C. after buffer changes. The sedimentation coefficients (S) of the enzyme were estimated by a Beckman-Coulter XL-A analytical ultracentrifuge with an An60Ti rotor as described (25). Sedimentation velocity analysis was performed at 40,000 rpm at 25° C. with standard double sector aluminum centerpieces. The UV absorption of the cells was scanned every 5 min for 4 hours. Sedimentation equilibrium was performed at 20° C. with six-channel open centerpieces and then centrifuged at 12,000 rpm for 12 hours. The data from both sedimentation velocity and sedimentation experiments were analyzed with the SedFit version 8.7 program to obtain molecular weights and sedimentation coefficients (25). Sednterp version 1.07 program is used to obtain solvent density, viscosity, Stokes' radius (Rs) and anhydrous frictional ratio (f/fo).

[3] = system: DPP-IV; assay: Dilution experiment (specific activity after two-fold dilutions); type: biochemical, human; details: 200 nM to 1.6 nM enzyme, 16 hours at 25° C., 10 uM H-Gly-Pro-pNA
Description: Enzyme concentrations ranging from 200 nM to 1.6 nM were used in the dilution experiments. The experiments were carried out with consecutive two-fold dilutions in PBS containing 0.1% BSA and 1 mM DTT (dithiothreitol). The solution after dilution was incubated at 25° C. for 16 hours to ensure attainment of dimer-monomer equilibrium. The reaction was initiated by adding the substrate H-Gly-Pro-pNA at a final concentration of 10 uM for both wild type DPP-IV and H750A proteins. The initial rate of the reaction was recorded and converted to specific activity.

[4] = Size exclusion chromatography (gel filtration, Superdex 200); type: physicochemical; details: gel filtration experiments; PBS buffer
Description: Chemical crosslinking in intact cells was conducted as described (24). Size exclusion chromatography was conducted at 4° C. Purified proteins (0.5 ml at a concentration of 5 uM) were applied to a Superdex 200 10/30 column (10×300-310 mm) pre-equilibrated with PBS. The sample was eluted with the same buffer at 0.3 ml/min and 0.25 ml fractions were collected. The Superdex 200 10/30 column was calibrated with the Stokes Radii of ferritin (6.1 nm), catalase (5.22 nm), aldolase (4.81 nm), albumin (3.55 nm), ovalbumin (3.05 nm) and chymotrypsinogen A (2.09 nm) from Amersham-Pharmacia.

[5] = target: H750A monomers (Homo sapiens, UniProt P27487, H750A); assay: AUC of H750A in the presence of inhibitor or dipeptide product; details: PBS buffer, FIG. 14
Sequence of H750A monomers (P27487 39-766 H750A): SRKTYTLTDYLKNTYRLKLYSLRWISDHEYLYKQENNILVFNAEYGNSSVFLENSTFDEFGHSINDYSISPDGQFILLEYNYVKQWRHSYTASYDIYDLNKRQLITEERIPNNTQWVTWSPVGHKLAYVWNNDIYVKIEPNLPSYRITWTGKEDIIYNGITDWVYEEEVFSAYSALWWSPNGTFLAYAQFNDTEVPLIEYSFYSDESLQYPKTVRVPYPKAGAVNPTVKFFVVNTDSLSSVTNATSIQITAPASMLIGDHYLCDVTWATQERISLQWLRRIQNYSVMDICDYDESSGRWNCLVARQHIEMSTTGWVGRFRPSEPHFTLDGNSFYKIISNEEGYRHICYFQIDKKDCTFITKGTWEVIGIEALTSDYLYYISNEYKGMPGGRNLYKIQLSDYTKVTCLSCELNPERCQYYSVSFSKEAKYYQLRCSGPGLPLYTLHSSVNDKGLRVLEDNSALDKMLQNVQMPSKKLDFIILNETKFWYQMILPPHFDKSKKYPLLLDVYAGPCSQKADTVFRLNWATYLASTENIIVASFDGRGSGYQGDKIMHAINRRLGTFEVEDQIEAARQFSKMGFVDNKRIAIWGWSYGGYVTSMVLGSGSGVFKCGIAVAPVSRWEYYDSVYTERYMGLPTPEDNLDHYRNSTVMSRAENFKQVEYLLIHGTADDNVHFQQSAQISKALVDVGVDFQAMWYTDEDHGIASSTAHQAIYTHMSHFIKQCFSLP
Description: AUC was performed for H750A in the presence of the proline-mimetic inhibitor and Gly-Pro dipeptide product, since the substrate Gly-Pro-pNA is cleaved by the enzyme.

Row | Molecule | Km ([1]; PBS buffer) [µM] | kcat ([1]; PBS buffer) [s⁻¹] | Anhydrous frictional ratio (f/fo) ([2]; PBS buffer) | Sedimentation coefficient (s20, w) ([2]; PBS buffer) [S] | quaternary structure (monomer/dimer) by AUC [2] | Stokes' radius (Rs) ([2]; PBS buffer) | specific activity on dilution [3] | Stokes' radius (Rs) [4] | dimer formation of H750A monomers in the presence of the substance [5] | Km ([1]; High salt buffer) [µM] | kcat ([1]; High salt buffer) [s⁻¹] | AUC analysis or catalytic activities in low salt buffer ([1]; low salt buffer compared to PBS buffer (data not shown)) | Sedimentation coefficient (s20, w) ([2]; High salt buffer) | quaternary structure (subunit composition) by sedimentation velocity ([2]; High salt buffer (0.5 M sodium sulfate)) | Stokes' radius (Rs) ([2]; High salt buffer)
1 | sDPP-IV: endogenous DPP-IV purified from human semen | 96 | 73 | 1.4 | 9.1 | homodimeric | 5.8^b nm | no decrease in specific activity | 5.9 nm and 5.9^a nm | – | – | – | – | – | – | –
2 | NCC(=O)N1CCC[C@H]1C(=O)O [G-P-OH, Gly-Pro] (H-Gly-Pro-OH) | – | – | – | – | – | – | – | – | did not associate to form dimers | – | – | – | – | – | –
3 | rDPP-IV: recombinant wild-type human DPP-IV (aa 39 to 766) from baculoviral infected insect cells | 90 | 87 | 1.4 | 8.4 | non-spherical dimer | 5.0^b nm | no decrease in specific activity | 5.6 nm and 5.6^a nm | – | 181 | 57 | no differences | 5.0 S and 4.9 S | dimer | 4.9^b nm

— patent US20060024313A1, “Agents that disrupt dimer formation in DPP-IV family of prolyl dipeptidases” (priority 2004, published 2006)
